Reference: patent US20220143148A1, “COMPOSITIONS AND METHODS FOR MODULATING CGRP SIGNALING TO REGULATE INTESTINAL INNATE LYMPHOID CELLS” (The Broad Institute, Inc., priority 2019, published 2022)

System: small intestinal immune cells
Test: Droplet-based scRNA-seq of small intestinal immune cells (LP and PP), OVA vs PBS, clustering and differential expression
Assay type: in vivo, mouse
Settings: PP; cluster ID 8
Text: To comprehensively characterize small intestinal immune cells, Applicants generated scRNA-Seq profiles for 58,067 immune cells collected from lamina propria (LP) and Peyer's patch (PP) regions at steady state and after induction of a type 2 inflammatory reaction to ovalbumin (OVA) (Brandt et al., 2003) (FIGS. 1A and 8A). To ensure sufficient representation of rare cells, Applicants combined a normalization strategy—removing by flow sorting either a portion of IgD+ naïve B cells, which are the most abundant cell type in PPs, or all CD19+ and CD3+ T cells (FIG. 8B, Methods)—with profiling of a sufficiently large number of cells number (P>0.99 to recover at least 15 cells from each cluster, Methods) by massively parallel scRNA-seq (Haber et al., 2017) (Methods). Applicants obtained 36,797 and 21,270 high quality cells passing initial filtering (Methods) from PP and LP regions, respectively.
Overall, Applicants annotated 27 cell subsets across the two compartments, spanning T cells, B cells, ILCs, dendritic cells (DCs), myeloid cells and stromal cells, in frequencies ranging from 0.07% to 14%. Briefly, Applicants first partitioned the cells from the PP regions by unsupervised clustering (Methods) into 46 clusters, retained the 97% of cells that were robustly assigned cell identities in each cluster (Methods), assigned the cells from the LP regions to the 46 clusters using a classifier (Methods), and visualized the data with scvis (Ding et al., 2018), a deep generative model-based method (FIGS. 1B and 8C, Methods). Next, Applicants identified genes that were differentially expressed between the cells in each cluster and the remaining cells (Table 1, Methods), as well as between pairs of clusters (Table 2), to elucidate identities of similar cell types/states. Applicants excluded from downstream analysis clusters mostly consisting of contaminants from epithelium, likely doublets, or cells with a small number of Unique Molecular Identifiers (UMIs) (FIGS. 1C and 8D), or lacking distinct markers (Methods). Altogether, Applicants retained 27 clusters spanning 85% of the cells and each associated with distinct marker genes (FIG. 8E, Methods).
To induce allergic reaction to OVA, 6 to 7 weeks old mice were sensitized twice, two weeks apart, with 50 μg of OVA plus 1 mg of aluminum potassium sulfate adjuvant via intraperitoneal injection. Two weeks later, mice were orally administered with 50 mg of OVA on every other day for a total of five times. 1 μg of α-CGRP peptide was administered simultaneously when indicated. Mice were deprived of food for 3-4 hours in cages with wood chip bedding for limiting antigen degradation in the stomach before each intragastric challenge.
Isolation of cells from Peyer's patches (PPs). Peyer's patches (PPs) were carefully dissected from the small intestine under a stereo microscope using a fine scissor, pierced once with a fine forcep. Tissues were digested in freshly made digestion buffer (RPMI-1640 containing 100 μg/ml Liberase™ and 50 μg/ml DNase I at 37° C. on a roto-mixer. After 15 min, tissues were very gently mixed using a 1 ml pipette. The supernatant was collected and added to ice-cold MACS buffer (pH 7.4; PBS plus 2% FCS and 2 mM EDTA). Pre-warmed (37° C.) fresh digestion buffer was added to the remaining tissues. After rotation at 37° C. for 15 min, the mixture was vigorously mixed using a 1 ml pipette for 1 min. Supernatants from the two steps were combined and passed through 70 μm filters and stained for FACS (below).
Isolation of cells from the lamina propria (LP). The small intestines were opened longitudinally and washed in ice-cold PBS. For scRNA-seq, roughly 0.5 cm of fragments from each of the distal, middle and proximal regions without visible PPs were collected. Epithelial cells were dissociated by tissue rotation in pre-warmed (37° C.) PBS containing 10 mM EDTA at 37° C. for 15 min, followed by additional incubation on ice for 15 min. Tissues were then shaken vigorously. […]

B1: OVA (protein, UniProt P01012 2-386, looked up)
Ovalbumin: GSIGAASMEFCFDVFKELKVHHANENIFYCPIAIMSALAMVYLGAKDSTRTQINKVVRFDKLPGFGDSIEAQCGTSVNVHSSLRDILNQITKPNDVYSFSLASRLYAEERYPILPEYLQCVKELYRGGLEPINFQTAADQARELINSWVESQTNGIIRNVLQPSSVDSQTAMVLVNAIVFKGLWEKAFKDEDTQAMPFRVTEQESKPVQMMYQIGLFRVASMASEKMKILELPFASGTMSMLVLLPDEVSGLEQLESIINFEKLTEWTSSNVMEERKIKVYLPRMKMEEKYNLTSVLMAMGITDVFSSSANLSGISSAESLKISQAVHAAHAEINEAGREVVGSAEAGVDAASVSEEFRADHPFLFCIKHIATNAVLFFGRCVSP
Fosl2 percentage of expressing cells in OVA-treated group: 0.378
Ftl1 percentage of expressing cells in OVA-treated group: 0.963
Gadd45b percentage of expressing cells in OVA-treated group: 0.17
Gimap1 percentage of expressing cells in OVA-treated group: 0.776
Gimap6 percentage of expressing cells in OVA-treated group: 0.815
Gimap9 percentage of expressing cells in OVA-treated group: 0.511
Gnai2 percentage of expressing cells in OVA-treated group: 0.661
Gramd1a percentage of expressing cells in OVA-treated group: 0.336
Gramd3 percentage of expressing cells in OVA-treated group: 0.227
Gzma percentage of expressing cells in OVA-treated group: 0.764
H2-K1 percentage of expressing cells in OVA-treated group: 0.978
H3f3b percentage of expressing cells in OVA-treated group: 0.993
Hcst percentage of expressing cells in OVA-treated group: 0.898
Hist1h1c percentage of expressing cells in OVA-treated group: 0.348
Hist1h1e percentage of expressing cells in OVA-treated group: 0.176
Icam1 percentage of expressing cells in OVA-treated group: 0.175
Id2 percentage of expressing cells in OVA-treated group: 0.684
Ier2 percentage of expressing cells in OVA-treated group: 0.781
Ier5l percentage of expressing cells in OVA-treated group: 0.057
Ifi203 percentage of expressing cells in OVA-treated group: 0.547
Ifrd1 percentage of expressing cells in OVA-treated group: 0.276
Igha percentage of expressing cells in OVA-treated group: 0.488
Igkc percentage of expressing cells in OVA-treated group: 0.677
Ikzf2 percentage of expressing cells in OVA-treated group: 0.216
Il2rg percentage of expressing cells in OVA-treated group: 0.681
Il16 percentage of expressing cells in OVA-treated group: 0.336
Jun percentage of expressing cells in OVA-treated group: 0.453
Jund percentage of expressing cells in OVA-treated group: 0.846
Kdm2b percentage of expressing cells in OVA-treated group: 0.158
Kdm6b percentage of expressing cells in OVA-treated group: 0.274
Klf4 percentage of expressing cells in OVA-treated group: 0.122
Klf6 percentage of expressing cells in OVA-treated group: 0.589
Klrb1c percentage of expressing cells in OVA-treated group: 0.735
Klrb1f percentage of expressing cells in OVA-treated group: 0.56
Klrc1 percentage of expressing cells in OVA-treated group: 0.608
Klrc2 percentage of expressing cells in OVA-treated group: 0.505
Klrd1 percentage of expressing cells in OVA-treated group: 0.939
Klre1 percentage of expressing cells in OVA-treated group: 0.744
Klrk1 percentage of expressing cells in OVA-treated group: 0.873
Lax1 percentage of expressing cells in OVA-treated group: 0.286
Litaf percentage of expressing cells in OVA-treated group: 0.339
Lmna percentage of expressing cells in OVA-treated group: 0.089
Maff percentage of expressing cells in OVA-treated group: 0.251
Mcpt1 percentage of expressing cells in OVA-treated group: 0.209
Mir142hg percentage of expressing cells in OVA-treated group: 0.161
Ms4a4b percentage of expressing cells in OVA-treated group: 0.953
Ms4a6b percentage of expressing cells in OVA-treated group: 0.419
Myl6 percentage of expressing cells in OVA-treated group: 0.987
Nabp1 percentage of expressing cells in OVA-treated group: 0.702
Ncr1 percentage of expressing cells in OVA-treated group: 0.964
Ndel1 percentage of expressing cells in OVA-treated group: 0.216
Neat1 percentage of expressing cells in OVA-treated group: 0.503
Neurl3 percentage of expressing cells in OVA-treated group: 0.388
Nfil3 percentage of expressing cells in OVA-treated group: 0.365
Nfkb1 percentage of expressing cells in OVA-treated group: 0.374
Nfkbia percentage of expressing cells in OVA-treated group: 0.614
Nfkbid percentage of expressing cells in OVA-treated group: 0.146
Nfkbie percentage of expressing cells in OVA-treated group: 0.111
Nfkbiz percentage of expressing cells in OVA-treated group: 0.358
Ninj1 percentage of expressing cells in OVA-treated group: 0.125
Nkg7 percentage of expressing cells in OVA-treated group: 0.985
Nr4a1 percentage of expressing cells in OVA-treated group: 0.561
Nr4a2 percentage of expressing cells in OVA-treated group: 0.348
Nr4a3 percentage of expressing cells in OVA-treated group: 0.157
Odc1 percentage of expressing cells in OVA-treated group: 0.202
P2ry10 percentage of expressing cells in OVA-treated group: 0.374
Phlda1 percentage of expressing cells in OVA-treated group: 0.134
Pim1 percentage of expressing cells in OVA-treated group: 0.677
Pnrc1 percentage of expressing cells in OVA-treated group: 0.769
Ppp1r15a percentage of expressing cells in OVA-treated group: 0.406
Ppp1r16b percentage of expressing cells in OVA-treated group: 0.206
Ppp3cc percentage of expressing cells in OVA-treated group: 0.268
Prr7 percentage of expressing cells in OVA-treated group: 0.093
Ptp4a2 percentage of expressing cells in OVA-treated group: 0.606
Ptprcap percentage of expressing cells in OVA-treated group: 0.929
